Changes are numbered by the printed parent chain. Names may count otherwise.
Columns and labels:
[1] = biological target: T1, recombinant biotinylated monomeric Fc fusion of cynomolgus Folate Receptor 1 (cy FolR1 ECD-AcTev-Fcknob-Avi … (cynomolgus, UniProt P0DOX5 223-449 = IgG part, biotin on the C-terminal Avi tag)); test: SPR Biacore, affinity (monovalent), antibody captured via anti-Fab, steady state analysis
T1 construct: also called cyFolR1-Fc; cyno FolR1
Description: (§1) All SPR experiments were performed on a Biacore T200 at 25° C. with HBS-EP as running buffer (0.01 M HEPES pH 7.4, 0.15 M NaCl, 3 mM EDTA, 0.005% Surfactant P20, Biacore, GE Healthcare). The molecules used for affinity and avidity determination are described in Table 45.
(§2) For affinity measurement, direct coupling of around 12000 resonance units (RU) of the anti-human Fab specific antibody (Fab capture kit, GE Healthcare) was performed on a CM5 chip at pH 5.0 using the standard amine coupling kit (GE Healthcare). Anti-FolR1 T cell bispecifics were captured at 20 nM with a flow rate of 10 μl/min for 40 sec, the reference flow cell was left without capture. […] The dissociation phase was monitored for 300 s and triggered by switching from the sample solution to HBS-EP. The chip surface was regenerated after every cycle using a double injection of 60 sec 10 mM Glycine-HCl pH 2.1. Bulk refractive index differences were corrected for by subtracting the response obtained on the reference flow cell 1. The affinity constants for the interactions were derived from the rate constants by fitting to a 1:1 Langmuir binding using the Bia Evaluation software (GE Healthcare). For low affinity kinetics with association and dissociation phases too fast to be fitted by the 1:1 Langmuir binding model, the steady state analysis model was applied using the Bia Evaluation software (GE Healthcare). The steady state analysis gives the KD of the binding reaction at equilibrium.

[2] = biological target: T1, recombinant biotinylated monomeric Fc …; test: SPR Biacore, avidity (bivalent, apparent KD), antigen-Fc on SA chip
Description: as §1
(§3) Recombinant biotinylated monomeric Fc fusions of human, cynomolgus and murine Folate Receptor 1 (FolR1-Fc) were directly coupled on a SA chip using the standard coupling instruction (Biacore, GE Healthcare). The immobilization level was about 200-300 RU. […] The dissociation was monitored for 240 or 600 seconds. The chip surface was regenerated after every cycle using a double injection of 30 sec 10 mM Glycine-HCl pH 1.5. Bulk refractive index differences were corrected for by subtracting the response obtained on reference flow cell immobilized with recombinant biotinylated murine IL2R Fc fusion (unrelated Fc fused receptor). The binding curves resulting from the bivalent binding of the T cell bispecifics were approximated to a 1:1 Langmuir binding (even though it is a 1:2 binding) and fitted with that model to get an apparent KD representing the avidity of the bivalent binding. The apparent avidity constants for the interactions were derived from the rate constants of the fitting using the Bia Evaluation software (GE Healthcare).

[3] = biological target: T2, recombinant biotinylated monomeric Fc fusion of human Folate Receptor 1 (huFolR1 ECD-AcTev-Fcknob-Avi tag … (human, UniProt P0DOX5 223-449 = IgG part, biotin on the C-terminal Avi tag)); test: as above
T2 construct: also called huFolR1-Fc; human FolR1-Fc
Description: as §1, §3

[4] = biological target: T3, human FolR1 expressed on cells (HeLa, SKOV3, HT-29, transfected HEK cells) (human, UniProt P15328 25-234); test: cell-based or functional assay
T3 sequence (P15328 25-234): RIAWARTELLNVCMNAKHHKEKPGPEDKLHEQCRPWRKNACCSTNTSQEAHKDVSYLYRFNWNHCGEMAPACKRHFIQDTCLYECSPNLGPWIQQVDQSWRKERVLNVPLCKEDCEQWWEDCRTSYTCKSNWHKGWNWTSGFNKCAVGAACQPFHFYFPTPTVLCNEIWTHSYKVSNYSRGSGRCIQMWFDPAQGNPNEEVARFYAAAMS

[5] = biological target: T2, recombinant biotinylated monomeric Fc …; test: SPR Biacore, avidity (bivalent)
[6] = biological target: T2, recombinant biotinylated monomeric Fc …; test: SPR Biacore, affinity (monovalent)
[7] = biological target: T2, recombinant biotinylated monomeric Fc …; test: SPR Biacore, affinity (monovalent), antibody captured via anti-Fab
Description: as §1, §2

[8] = biological target: T3, human FolR1 expressed on cells (HeLa, …); test: cell-based or functional assay; remark: listed apart in the source
[9] = biological target: T4, recombinant biotinylated monomeric Fc fusion of human Folate Receptor 3 (hu FolR3 ECD-AcTev-Fcknob-Avi tag … (human, UniProt P0DOX5 223-449 = IgG part, biotin on the C-terminal Avi tag)); test: SPR Biacore, single injection on immobilized antigen-Fc
T4 construct: also called FolR3-Fc
Method in brief: (§4)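 Biacore T200 at 25 °C in HBS-EP (HEPES pH 7.4). Biotinylated FolR-Fc fusions captured on SA chip at about 300-400 RU. IgGs injected once at 500 nM for 60 s to assess cross-reactivity and specificity.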

[10] = biological target: T5, recombinant biotinylated monomeric Fc fusion of human Folate Receptor 2 (hu FolR2 ECD-AcTev-Fcknob-Avi tag … (human, UniProt P0DOX5 223-449 = IgG part, biotin on the C-terminal Avi tag)); test: as above
T5 construct: also called FolR2-Fc
Method in brief: as §4

[11] = biological target: T1, recombinant biotinylated monomeric Fc …; test: as above
Method in brief: as §4

[12] = biological target: T2, recombinant biotinylated monomeric Fc …; test: as above
Method in brief: as §4

[13] = biological target: T4, recombinant biotinylated monomeric Fc …; test: SPR ProteOn, Fab analyte on immobilized antigen-Fc
Description: (§5) Immobilization of antigens (ligand): Recombinant antigens were diluted with PBST (10 mM phosphate, 150 mM sodium chloride pH 7.4, 0.005% Tween 20) to 10 μg/ml, then injected at 30 μl/minute in vertical orientation. Injection of analytes: For ‘one-shot kinetics’ measurements, injection direction was changed to horizontal orientation, two-fold dilution series of purified Fab (varying concentration ranges) were injected simultaneously along separate channels 1-5, with association times of 150 or 200 s, and dissociation times of 200 or 600 s, respectively. Buffer (PBST) was injected along the sixth channel to provide an “in-line” blank for referencing. Association rate constants (kₒₙ) and dissociation rate constants (koff) were calculated using a simple one-to-one Langmuir binding model in ProteOn Manager v3.1 software by simultaneously fitting the association and dissociation sensorgrams. The equilibrium dissociation constant (KD) was calculated as the ratio koff/kₒₙ.

[14] = biological target: T5, recombinant biotinylated monomeric Fc …; test: SPR ProteOn, Fab analyte on immobilized antigen-Fc
Description: as §5

[15] = biological target: T1, recombinant biotinylated monomeric Fc …; test: SPR ProteOn, Fab analyte on immobilized antigen-Fc
Description: as §5

[16] = biological target: T6, recombinant biotinylated monomeric Fc fusion of murine Folate Receptor 1 (mu FolR1 ECD-AcTev-Fcknob-Avitag … (murine, UniProt P0DOX5 223-449 = IgG part, biotin on the C-terminal Avi tag)); test: SPR ProteOn, Fab analyte on immobilized antigen-Fc
T6 construct: also called muFolR1-Fc; murine FolR1
Description: as §5

[17] = biological target: T2, recombinant biotinylated monomeric Fc …; test: SPR ProteOn, Fab analyte on immobilized antigen-Fc
Description: as §5

[18] = biological target: T7, human FolR2 on transfected HEK cells (human, UniProt P14207 17-230); test: flow cytometry on transfected HEK cells
T7 construct: whole, on cells
T7 sequence (P14207 17-230): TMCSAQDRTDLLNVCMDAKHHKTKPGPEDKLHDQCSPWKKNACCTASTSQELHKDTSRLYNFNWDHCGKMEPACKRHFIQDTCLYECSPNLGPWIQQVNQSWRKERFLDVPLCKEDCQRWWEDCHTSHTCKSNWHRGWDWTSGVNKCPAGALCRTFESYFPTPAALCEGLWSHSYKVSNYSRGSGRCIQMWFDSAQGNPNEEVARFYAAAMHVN

[19] = biological target: T6, recombinant biotinylated monomeric Fc …; test: SPR Biacore, single injection on immobilized antigen-Fc
Method in brief: as §4

B1: 16D5 G49S/K53A TCB (2+1 inverted, common light chain) (bispecific antibody, V domains shown)
VH 1: not shown
VL: QTVVTQEPSLTVSPGGTVTLTCGSSTGAVTTSNYANWVQQKPGQAPRGLIGGTNARAPGTPARFSGSLLGGKAALTLSGVQPEDEAEYYCALWYSNLWVFGGGTKLTVL
VH 2: not shown
Kd [1]: 1900 nM | Kd [2]: 70 nM | koff [2]: 0.0256 s⁻¹ | kon [2]: 373000 M⁻¹ s⁻¹ | Kd [3]: 40 nM | koff [3]: 0.00586 s⁻¹ | kon [3]: 132000 M⁻¹ s⁻¹ | EC50 of T-cell killing of Hela, 24 h [4]: 0.0044 nM | EC50 of T-cell killing of SKov-3, 24 h [4]: 1.7 nM | fold lower avidity than 16D5 WT (3 nM) [5]: 13 fold | fold lower affinity than 16D5 WT (57 nM) [6]: 30 fold | Kd [7]: 1700 nM | koff [7]: 0.0159 s⁻¹ | kon [7]: 9170 M⁻¹ s⁻¹ | EC50 of T-cell killing of HT-29, 48 h [8]: 1.79 nM | EC50 of T-cell killing of Hela, 48 h [8]: 0.0005 nM | EC50 of T-cell killing of SKov-3, 48 h [8]: 0.95 nM

B2: 19H3 IgG (antibody, V domains shown)
VH: QVQLVQSGAEVKKPGASVKVSCKASGYTFTSYYMHWVRQAPGQGLEWMGIINPSGGSTSYAQKFQGRVTMTRDTSTSTVYMELSSLRSEDTAVYYCARTGWSRWGYMDYWGQGTLVTVSS
VL: B1 VL with T2A, Q40E, P46F, A55K, V80A
notes: human IgG1
binding result [9]: no binding (tested: 500 nM) | binding result [10]: no binding (tested: 500 nM) | binding result [11]: no binding (tested: 500 nM) | binding result [12]: no binding (tested: 500 nM)

B3: 20G6 IgG (antibody, V domains shown)
VH: B2 VH with T99G, G100E, S102I, W104Y, G105Y, Y106H, M107F
VL: B1 VL with T2A, Q40E, P46F, A55K, V80A
notes: human IgG1
binding result [9]: no binding (tested: 500 nM) | binding result [10]: no binding (tested: 500 nM) | binding result [11]: no binding (tested: 500 nM) | binding result [12]: no binding (tested: 500 nM)

B4: 36F2 Fab (Fab, V domains shown)
VH: QVQLVQSGAEVKKPGASVKVSCKASGYTFTSYYMHWVRQAPGQGLEWMGIINPSGGSTSYAQKFQGRVTMTHDTSTSTVYMELSSLRSEDTAVYYCARSFFTGFHLDYWGQGTLVTVSS
VL: EIVLTQSPGTLSLSPGERATLSCRASQSVSSSYLAWYQQKPGQAPRLLIYGASSRATGIPDRFSGSGSGTDFTLTISRLEPEDFAVYYCQQYTNEHYYTFGQGTKVEIK
notes: bacterial Fab
binding result [13]: no binding | binding result [14]: no binding | Kd [15]: 1640 nM | Kd [16]: 737 nM | Kd [17]: 1810 nM

B5: 9D11 Fab (Fab, V domains shown)
VH: QVQLVQSGAEVKKPGASVKVSCKASGYTFTSYYMHWVRQAPGQGLEWMGIINPSGGPTSYAQKFQGRVTMTRDTSTSTVYMELSSLRSEDTAVYYCARGDFAWLDYWGQGTLVTVSS
VL: not shown
notes: bacterial Fab
binding result [13]: no binding | binding result [14]: no binding | Kd [15]: 5.29 nM | binding result [16]: no binding | Kd [17]: 8.64 nM

B6: 16D5 IgG (antibody, V domains shown)
VH: not shown
VL: B1 VL with T2A, Q40E, P46F, A55K, V80A
notes: human IgG1
binding result [18]: no binding | binding result [9]: no binding (tested: 500 nM) | binding result [10]: no binding (tested: 500 nM) | binding result [19]: no binding (tested: 500 nM)

B7: 14E4 Fab (Fab, V domains shown)
VH: not shown
VL: EIVLTQSPGTLSLSPGERATLSCRASQSVSSSYLAWYQQKPGQAPRLLIYGASSRATGIPDRFSGSGSGTDSTLTISRLEPEDFAVYYCQQPTSSPITFGQGTKVEIK
notes: bacterial Fab
binding result [13]: no binding | binding result [14]: no binding | binding result [15]: no binding | binding result [17]: no binding

— US20220220224A1 (Hoffmann-La Roche, published 2022)
